Measured values from paper PMC11614891.
Square brackets hold non-standard residues; d marks the D form. Ends that are not written are not given here. * marks the point of attachment. Biotin = O=C1N[C@H]2[C@H](CS[C@H]2CCCCC(=O)*)N1

Target: L-19437_(D-Pep-1)
Assay: ITC; MicroCal PEAQ-ITC, 19 injections; peptide titrated over the binder (L-19437 15 uM, D-Pep-1 150 uM); PBS pH 7.4; One Set of Sites mode

## Biotin-[dD][dE][dH][dE][dL][dL][dE][dT][dA][dA][dR][dW][dF][dY][dE][dI][dA][dK][dR][dA] [D-Pep-1]
  Kd: 48.7 nM
  stoichiometry N: 0.938 sites
